{"source": "patent US7687457B2", "about": "“Cyclic molecular framework and derivatives thereof” (The University of Queensland, priority 1999, dated 2010)", "target": "N-type voltage-sensitive calcium channels (receptors in rat brain membrane) (rat) (UniProt Q02294)", "sequence (Q02294 whole entry)": "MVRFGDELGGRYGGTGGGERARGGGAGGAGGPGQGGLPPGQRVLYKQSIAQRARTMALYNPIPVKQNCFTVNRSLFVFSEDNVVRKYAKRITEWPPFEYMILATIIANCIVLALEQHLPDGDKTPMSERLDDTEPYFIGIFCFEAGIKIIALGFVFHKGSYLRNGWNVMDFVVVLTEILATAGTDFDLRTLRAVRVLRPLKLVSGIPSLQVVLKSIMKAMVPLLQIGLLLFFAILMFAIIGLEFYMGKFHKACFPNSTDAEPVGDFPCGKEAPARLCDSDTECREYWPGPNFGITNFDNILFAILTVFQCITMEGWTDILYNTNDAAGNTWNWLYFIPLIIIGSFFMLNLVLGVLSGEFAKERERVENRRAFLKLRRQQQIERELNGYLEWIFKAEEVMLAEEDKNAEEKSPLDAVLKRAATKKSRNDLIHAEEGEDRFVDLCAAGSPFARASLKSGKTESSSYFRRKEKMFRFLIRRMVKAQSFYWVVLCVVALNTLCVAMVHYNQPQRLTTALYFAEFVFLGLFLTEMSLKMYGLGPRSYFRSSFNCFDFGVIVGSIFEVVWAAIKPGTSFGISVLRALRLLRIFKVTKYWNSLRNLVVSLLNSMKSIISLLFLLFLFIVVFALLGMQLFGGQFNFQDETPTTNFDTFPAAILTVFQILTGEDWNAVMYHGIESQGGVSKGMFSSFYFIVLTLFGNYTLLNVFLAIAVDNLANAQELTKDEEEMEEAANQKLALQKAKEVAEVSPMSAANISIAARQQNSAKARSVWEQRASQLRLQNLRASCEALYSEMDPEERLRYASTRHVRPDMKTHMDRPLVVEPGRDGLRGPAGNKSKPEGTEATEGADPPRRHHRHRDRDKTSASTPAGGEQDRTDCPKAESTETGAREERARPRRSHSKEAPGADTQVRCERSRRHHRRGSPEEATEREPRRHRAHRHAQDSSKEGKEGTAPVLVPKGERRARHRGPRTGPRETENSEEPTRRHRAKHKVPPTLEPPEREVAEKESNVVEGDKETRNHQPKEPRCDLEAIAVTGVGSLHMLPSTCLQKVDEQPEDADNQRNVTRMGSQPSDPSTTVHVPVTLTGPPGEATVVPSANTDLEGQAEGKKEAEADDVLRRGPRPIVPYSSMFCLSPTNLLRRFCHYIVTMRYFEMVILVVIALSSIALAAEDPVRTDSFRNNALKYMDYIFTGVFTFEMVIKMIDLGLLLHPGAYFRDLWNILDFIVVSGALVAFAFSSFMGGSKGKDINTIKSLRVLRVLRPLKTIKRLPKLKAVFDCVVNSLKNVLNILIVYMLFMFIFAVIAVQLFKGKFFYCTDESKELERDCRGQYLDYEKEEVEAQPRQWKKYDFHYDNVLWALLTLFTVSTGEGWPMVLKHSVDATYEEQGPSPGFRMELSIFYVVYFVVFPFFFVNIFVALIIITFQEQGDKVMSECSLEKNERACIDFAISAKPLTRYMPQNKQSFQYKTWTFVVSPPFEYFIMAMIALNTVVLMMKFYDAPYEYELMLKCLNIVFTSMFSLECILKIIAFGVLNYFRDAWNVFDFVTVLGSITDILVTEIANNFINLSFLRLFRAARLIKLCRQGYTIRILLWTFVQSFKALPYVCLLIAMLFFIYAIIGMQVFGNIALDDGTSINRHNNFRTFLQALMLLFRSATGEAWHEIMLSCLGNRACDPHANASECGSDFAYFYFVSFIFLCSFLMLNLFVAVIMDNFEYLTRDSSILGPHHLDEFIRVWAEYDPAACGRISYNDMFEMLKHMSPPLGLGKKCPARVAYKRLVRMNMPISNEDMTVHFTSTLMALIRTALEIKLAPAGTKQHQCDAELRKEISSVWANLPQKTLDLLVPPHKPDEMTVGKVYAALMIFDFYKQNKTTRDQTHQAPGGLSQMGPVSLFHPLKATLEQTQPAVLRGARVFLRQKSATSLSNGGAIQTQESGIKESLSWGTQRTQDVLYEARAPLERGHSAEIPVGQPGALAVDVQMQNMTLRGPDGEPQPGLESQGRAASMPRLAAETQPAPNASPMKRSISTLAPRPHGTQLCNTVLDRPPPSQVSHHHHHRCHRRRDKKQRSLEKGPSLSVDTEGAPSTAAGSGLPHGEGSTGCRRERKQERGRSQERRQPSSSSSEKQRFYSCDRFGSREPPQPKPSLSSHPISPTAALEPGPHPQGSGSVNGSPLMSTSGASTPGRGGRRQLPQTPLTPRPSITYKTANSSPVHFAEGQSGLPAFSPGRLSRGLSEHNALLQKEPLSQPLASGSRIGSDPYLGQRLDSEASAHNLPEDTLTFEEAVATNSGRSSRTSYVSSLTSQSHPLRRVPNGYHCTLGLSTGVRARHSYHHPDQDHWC", "note": "pEC50: −log10 of the molar value.", "data": [{"substance": "ω-conotoxin MVIIA (from UniProt P05484 46-70) (peptide)", "values": [{"measurement": "pEC50", "value": 10.36}]}]}
